The subject of series [1] is plant-derived isoprene synthase (IspS; EC 4.2.3.27). Particulars: DMAPP as substrate to produce isoprene; background art; cited from earlier work.
Series [2] deals with T1, alkaliphilic Bacillus sp. N16-5 IspH protein, wild type, SEQ ID NO: 2 (Salipaludibacillus agaradhaerens, UniProt A0A9Q4B1R3).
T1 sequence (A0A9Q4B1R3 1-318): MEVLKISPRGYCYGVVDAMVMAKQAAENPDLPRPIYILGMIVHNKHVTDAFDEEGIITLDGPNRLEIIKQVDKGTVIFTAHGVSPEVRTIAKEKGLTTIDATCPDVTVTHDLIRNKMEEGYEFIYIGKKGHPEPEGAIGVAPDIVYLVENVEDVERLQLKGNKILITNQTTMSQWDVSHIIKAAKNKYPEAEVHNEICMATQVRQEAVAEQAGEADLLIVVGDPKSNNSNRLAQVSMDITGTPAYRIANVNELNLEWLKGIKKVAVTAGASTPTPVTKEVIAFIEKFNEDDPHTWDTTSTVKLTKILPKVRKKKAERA
Description: Kinetic parameters of the enzymatic reaction converting DMAPP to isoamylene by wild-type IspH protein. Particulars: DMAPP as substrate to produce isoamylene; DMAPP 0-1.0 mM; pH 7.8, 37° C., 1 mM NADPH, ferredoxin/ferredoxin-NADP+ reductase, anaerobic. The class given is biochemical.

A short description of series [3]: In vitro activity assay using DMAPP as a substrate (headspace gas GC-MS, kinetic parameters). In kind it is biochemical. Particulars: 1 mM DMAPP, 0.5 μM protein, 37° C. 1 h. As to the method:
(§1) Under anaerobic conditions, in a sealed 5 ml chromatotube, IspH protein and its mutants were determined for their activity, wherein the reaction system comprised: 150 mM NaCl, 20 mM Tris-HCl (pH 7.8), 2 mM DTT, 1 mM NADPH, 1 mM DMAPP, 20 μM ferredoxin, 5 μM ferredoxin-NADP^+ reductase, and 0.5 μM IspH protein or its mutants (H131N and E133Q) obtained above; the total reaction volume was 500 μl; and the reaction condition was incubation at 37° C. for 1 h.
After the reaction, the headspace gas in the chromatotube was collected, and was subjected to gas chromatography-mass spectrometry (GC-MS).
In order to determine the kinetic parameters of the wild-type IspH protein, DMAPP at different concentrations (0, 0.1, 0.2, 0.3, 0.4, 0.5, 1.0 mM) was used to repeat the experiment.

The nature of series [4]: In vitro activity assay using IPP as a substrate. The class given is biochemical. As to the method:
as §1
In addition, IPP was used as a substrate to repeat the experiment.

Series [5] is described as follows: In vitro activity assay using HMBPP as a substrate (headspace gas GC-MS). The settings on record: for Production of 2-methyl-2-butene or not / Production of 3-methyl-1-butene or not / Isoprene produced in the reaction system: 1 mM HMBPP, 0.5 μM protein, 37° C. 1 h, headspace gas; for Isoprene produced in the reaction system: ferredoxin, FNR, NADPH, anaerobic. In kind it is biochemical. As to the method:
(§2) Under anaerobic conditions, in a sealed 5 ml chromatotube, IspH protein and its mutants were determined for their activity, wherein the reaction system comprised: 150 mM NaCl, 20 mM Tris-HCl (pH 7.8), 2 mM DTT, 1 mM NADPH, 1 mM HMBPP, 20 μM ferredoxin, 5 μM ferredoxin-NADP^+ reductase, and 0.5 μM IspH protein or its mutants (H131N and E133Q) obtained above; the total reaction volume was 500 μl; and the reaction condition was incubation at 37° C. for 1 h.
After the reaction, the headspace gas in the chromatotube was collected, and was subjected to gas chromatography-mass spectrometry (GC-MS). In brief, the gas was analyzed by Agilent Technologies 7890B GG/5977A MSD equipped with Agilent HP-PLOT Al2O3/S GC column (25 m, 0.32 mm, 8.00 μm, 7 inch cage), wherein He gas was used as a carrier gas at a flow rate of 2 ml/min. Later, the experimental data of the test sample (peak retention time, peak area, mass spectrogram, etc.) was compared with the experimental data of the standard substance (isoprene, 3-methyl-1-butene and 2-methyl-2-butene) to identify the gas components and perform quantitative analysis.

Series [6] can be described thus: Acid treatment of the reaction solution to determine DMAPP (isoprene in headspace gas by GC-MS). The class given is biochemical. The settings on record: reaction solution of the HMBPP assay, 8M H2SO4, 37° C. 30 min; indicates DMAPP. As to the method:
as §2
In addition, after the reaction, the reaction solution in the chromatotube was also analyzed to determine whether IPP and DMAPP were produced. Since DMAPP can spontaneously produce isoprene under acidic conditions, the amount of DMAPP in the reaction solution can be determined by determining the amount of isoprene produced in the reaction solution under acidic conditions. In brief, under anaerobic conditions, 50 μL reaction solution was put in another 5 ml chromatotube, and diluted with cold water to a volume of 500 μL, and an equal volume of 8M H2SO4 was added; then, the chromatotube was sealed immediately, and incubated at 37° C. for 30 min. After the incubation, the amount of isoprene in the headspace gas was determined by the above-mentioned GC-MS method, to determine whether the reaction solution contained DMAPP or not.

Positions count from the first letter of the chain named. Names may count otherwise.

As to `CC(C)=CCOP(=O)(O)OP(=O)(O)O` [DMAPP, dimethylallyl pyrophosphate], in series [1], the Km value entry was “reaches the level of mM”. For the same molecule, the maximum reaction activity entry in series [2] is on record as “about 6.2 nmol min^−1 mg^−1”.

B1: wild-type IspH: IspH protein from alkaliphilic Bacillus sp. N16-5, amino acid sequence SEQ ID NO: 2 (protein)
chain: T1 sequence (A0A9Q4B1R3 1-318)
modifications: Bacillus sp. N16-5
On to B1, for which the “conversion of DMAPP to isoamylene (2-methyl-2-butene and 3-methyl-1-butene)” value in series [3] is “produce isoamylene”. Moreover, the “catalytic activity on IPP” value in series [4] is listed as “none”. Besides, in series [5], the “Production of 2-methyl-2-butene or not” value was “yes”, the “Production of 3-methyl-1-butene or not” value is “yes” and the “Isoprene produced in the reaction system” value was determined as 104.4 μg L^−1 OD^−1. In addition, the “activity of converting HMBPP to isoamylene directly” value in series [5] (headspace gas in different phases of the HMBPP assay) is given as “does not have the activity of converting HMBPP to isoamylene directly”. The “products formed from HMBPP as a substrate (isoprene, isoamylene, IPP, DMAPP)” value in series [5] (summary of the HMBPP assay) is “can use HMBPP as a substrate to produce isoprene, isoamylene, IPP and DMAPP”. Besides, in series [6], the “isoprene produced by treating the reaction solution with acid” value was determined as 696.3 μg L^−1 OD^−1.

B2: IspH-E133Q: IspH mutant, glutamic acid to glutamine at position 133 of SEQ ID NO: 2 (SEQ ID NO: 4) (protein)
chain: T1 sequence (A0A9Q4B1R3 1-318) with E133Q
modifications: Mutant protein E133Q
As to B2, in series [5], the “Production of 2-methyl-2-butene or not” value is on record as “no”, the “Production of 3-methyl-1-butene or not” value was “no” and the “Isoprene produced in the reaction system” value turned out to be 106.4 μg L^−1 OD^−1. The “isoprene produced by treating the reaction solution with acid” value in series [6] came out at 6.1 μg L^−1 OD^−1.

The record behind these values is patent publication US10287569B2, “Enzyme for biosynthesis of isoprene and isopentenyl, and mutant thereof” (INSTITUTE OF MICROBIOLOGY, CHINESE ACADEMY OF SCIENCES, priority 2016, dated 2019).
